# Earlier results as cited in patent US20210079079A1, “SYSTEMS AND METHODS FOR LOCAL MODULATION OF WNT SIGNALING” (Ortheus, Inc., priority 2018, published 2021).
# Details: in vivo; cited from earlier work
substance,measurement,value
DKK1: a secreted protein that inhibits canonical Wnt signaling,elimination half-life,less than 30 minutes
